{
  "source": "paper PMC4826291",
  "target": "BG505 SOSIP.664 gp140 trimer (HIV-1 (strain BG505)) (UniProt Q2N0S6)",
  "experiment": "negative-stain EM",
  "data": [
    {"substance": "CH235 Fab", "values": [
      {"measurement": "stoichiometry N (Fabs per trimer)", "value": 1}
    ]}
  ]
}
